System: human hepatoma SMMC-7721
Assay: Human hepatoma SMMC-7721 xenografts in nude mice (Example 1)
Assay type: in vivo
Details: for TV (mm^3, mean ± SD) (D0): day 0, start of treatment
Method: The test article was used without dilution. It was stored at 4° C. until thawed for injection.
The animals used were 4-6 weeks old male BALB/cA nu/nu mice, weighing about 23±2 g, obtained from the Shanghai Institute of Materia Medica (Shanghai, P.R. China). The study protocol was reviewed by the Committee on the Use and Care of Animals of Shanghai Institute of Materia Medica for compliance with regulations, and Committee approval was obtained prior to study initiation. Wherever possible, procedures used in this study were designed to avoid or minimize discomfort, distress, and pain to the animals. Animals that experience severe or chronic pain or distress that could not be relieved were painlessly euthanized, in accordance to regulations. Animals were housed 6 to a cage. They were ear-marked with ear hole punch identification. The room temperature was maintained at 25° C.±1° C. Lighting was set at 12 hr on and 12 hr off. Food was provided ad libitum. City tap water, filtered with a 5 micrometer (μm) filter, was provided to the animals ad libitum via water bottles. Neither the Study Director nor Huiyang Life Science and Technology Corp. was aware of any contaminant in the food or water that would interfere with or influence the intent and purpose of this study.
The test article (rSIFN-co) and the vehicle control were each administered intratumorally (i.t.). The test article was administered in a volume of 0.05 ml-0.15 ml per mouse per treatment, depending on the group to which the animal was assigned. […] Normal saline was injected in a volume of 0.15 ml per mouse, which was used as vehicle control.
Animals were assigned to treatment groups randomly. Initially, all animals were placed in one large animal cage. For assignment to the study, they were later separately housed, with 6 animals per cage per treatment group. Groups 1 and 2 are Control groups in which the animals were each administered the vehicle every other day after the first treatment. […] The animals in Groups 4, 5 and 6 were each given rSIFN-co every other day after the first treatment at 0.15 mg/mouse (Group 4) or 0.10 mg/mouse (Group 5) or 0.05 mg/mouse (Group 6), respectively. Tumor growth was monitored by measuring the length and width of each tumor twice a week during the course of the study. Each animal was also weighed twice a week during the course of the study.
Before commencement of this study, the xenografts were passaged twice in nude mice. Under sterile conditions, well-grown tumors were cut into 1.5 mm^3 fragments and one such fragment was injected by trocar needle into the right flank of each study animal. […] Individual tumor size (length and width) was measured twice per week with microcalipers. Tumor volume (V) was calculated using the formula: V=(length×width^2)/2. Individual relative tumor volume (RTV) was calculated using the formula: RTV=Vt/V0, where Vt is the tumor volume on the day of measurement and V0 is the tumor volume on the day of first treatment. Therapeutic effect of the test article or control article was expressed in terms of TIC (%), using the formula: TIC (%) (mean RTV of the treated group/mean RTV of the control group)×100%; and in terms of % Inhibition, using the formula: % Inhibition=100%−T/C %.

[1] = 0.05 mg/mouse i.t. every other day, day 21

B1: rSIFN-co: Recombinant super-compound interferon; amino acid sequence SEQ ID NO: 1 (same as interferon alfacon-1), encoded by SEQ ID NO: 2, novel tertiary structure (protein)
chain: MCDLPQTHSLGNRRALILLAQMRRISPFSCLKDRHDFGFPQEEFDGNQFQKAQAISVLHEMIQQTFNLFSTKDSSAAWDESLLEKFYTELYQQLNDLEACVIQEVGVEETPLMNVDSILAVKKYFQRITLYLTEKKYSPCAWEVVRAEIMRSFSLSTNLQERLRRKE
modifications: Amino acid sequence of recombinant interferon
0.05 mg/mouse i.t. every other day
  TV (mm^3, mean ± SD) (D0): 124 ± 26 mm^3
[1]
  % Inhibition: 48.10%
  TV (mm^3, mean ± SD) (D21): 592 ± 139 mm^3
0.10 mg/mouse i.t. every other day
  TV (mm^3, mean ± SD) (D0): 124 ± 15 mm^3
0.10 mg/mouse i.t. every other day, day 21
  TV (mm^3, mean ± SD) (D21): 573 ± 287 mm^3
0.15 mg/mouse i.t. every other day
  TV (mm^3, mean ± SD) (D0): 123 ± 20 mm^3
0.15 mg/mouse i.t. every other day, day 21
  TV (mm^3, mean ± SD) (D21): 505 ± 226 mm^3

From patent US10677782B2, “Methods of determining interferon having direct inhibitory effects on tumors and uses thereof” (SUPERLAB FAR EAST LIMITED, priority 2013, dated 2020)
